Assay results from patent publication US20260078171A1.

Assays:
[1] = target: SARS-CoV-2 Beta RBD (SARS-CoV-2); assay: bio-layer interferometry (BLI, Octet), monovalent Fab affinity
[2] = target: SARS-CoV-2 Delta spike protein (authentic virus / MLV pseudovirus) (SARS-CoV-2); assay: cell-based or functional assay
[3] = target: SARS-CoV-2 Omicron BA.2 spike protein (authentic virus / MLV pseudovirus) (SARS-CoV-2); assay: cell-based or functional assay
[4] = target: SARS-CoV-2 Omicron BA.1 spike protein (authentic virus / MLV pseudovirus) (SARS-CoV-2); assay: cell-based or functional assay
[5] = target: SARS-CoV-2 Omicron BA.4.1 spike protein (authentic virus) (SARS-CoV-2); assay: cell-based or functional assay
[6] = target: SARS-CoV-2 Omicron XBB.1.5 spike protein, Monogram pseudovirus (SARS-CoV-2) (UniProt P0DTC2); assay: cell-based or functional assay
[7] = target: SARS-CoV-2 Omicron BA.2.75 spike protein, Monogram pseudovirus (SARS-CoV-2) (UniProt P0DTC2); assay: cell-based or functional assay
[8] = target: SARS-CoV-2 Omicron BN.1 spike protein, Monogram pseudovirus (SARS-CoV-2) (UniProt P0DTC2); assay: cell-based or functional assay
[9] = target: SARS-CoV-2 Omicron XBB.1 spike protein, Monogram pseudovirus (SARS-CoV-2) (UniProt P0DTC2); assay: cell-based or functional assay
[10] = target: SARS-CoV-2 B.1.617.2 (Delta) spike protein, Monogram pseudovirus (SARS-CoV-2) (UniProt P0DTC2); assay: cell-based or functional assay
[11] = target: SARS-CoV-2 Omicron BA.5 spike glycoprotein (lentivirus-based pseudovirus) (SARS-CoV-2); assay: cell-based or functional assay
[12] = target: SARS-CoV-2 Omicron BA.2.75 spike glycoprotein (lentivirus-based pseudovirus) (SARS-CoV-2); assay: cell-based or functional assay
[13] = target: SARS-CoV-2 Omicron XBB spike protein, Monogram pseudovirus (SARS-CoV-2) (UniProt P0DTC2); assay: cell-based or functional assay
[14] = target: SARS-CoV-2 Beta spike protein (MLV pseudovirus) (SARS-CoV-2); assay: cell-based or functional assay

VYD223 (antibody), sequence (VH): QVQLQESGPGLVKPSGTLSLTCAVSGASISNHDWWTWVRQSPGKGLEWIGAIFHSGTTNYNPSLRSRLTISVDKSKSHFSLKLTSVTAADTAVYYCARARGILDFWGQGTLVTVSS
VYD223 (antibody), sequence (VL): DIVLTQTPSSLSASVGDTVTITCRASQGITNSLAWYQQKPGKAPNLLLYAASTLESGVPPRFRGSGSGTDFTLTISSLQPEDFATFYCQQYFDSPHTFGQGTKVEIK
VYD222 (antibody), sequence (VH): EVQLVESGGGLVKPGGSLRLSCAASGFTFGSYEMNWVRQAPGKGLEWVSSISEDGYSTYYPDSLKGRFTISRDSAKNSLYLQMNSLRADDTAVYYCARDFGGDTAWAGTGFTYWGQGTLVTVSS
VYD222 (antibody), sequence (VL): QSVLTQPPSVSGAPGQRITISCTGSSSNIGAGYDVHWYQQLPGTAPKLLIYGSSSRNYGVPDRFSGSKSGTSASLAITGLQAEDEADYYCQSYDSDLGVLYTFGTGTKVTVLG
VYD224 (antibody), sequence (VH): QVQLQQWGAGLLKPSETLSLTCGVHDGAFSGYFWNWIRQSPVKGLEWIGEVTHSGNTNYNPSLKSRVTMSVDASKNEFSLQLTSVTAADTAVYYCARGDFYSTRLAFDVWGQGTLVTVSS
VYD224 (antibody), sequence (VL): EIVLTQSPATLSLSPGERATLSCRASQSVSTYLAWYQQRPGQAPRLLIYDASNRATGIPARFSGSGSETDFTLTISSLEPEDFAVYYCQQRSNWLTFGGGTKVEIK
ADI-58125 (antibody), sequence (VH): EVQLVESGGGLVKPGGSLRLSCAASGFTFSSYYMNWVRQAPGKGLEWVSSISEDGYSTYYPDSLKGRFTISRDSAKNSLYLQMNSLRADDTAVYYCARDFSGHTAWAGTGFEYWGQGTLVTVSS
ADI-58125 (antibody), sequence (VL): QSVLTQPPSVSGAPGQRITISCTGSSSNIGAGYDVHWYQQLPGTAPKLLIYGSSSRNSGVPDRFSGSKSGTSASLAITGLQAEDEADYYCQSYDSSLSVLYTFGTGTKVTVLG

Substance	IC50, authentic virus neutralization [2] [µg/mL]	IC90, authentic virus neutralization [2] [µg/mL]	IC50, authentic virus neutralization [3] [µg/mL]	IC90, authentic virus neutralization [3] [µg/mL]	IC50, authentic virus neutralization [4] [µg/mL]	IC90, authentic virus neutralization [4] [µg/mL]	IC50, authentic virus neutralization [5] [µg/mL]	IC90, authentic virus neutralization [5] [µg/mL]	further results
ADI-58125 (Fab)	–	–	–	–	–	–	–	–	Kd [1]: 6.4 nM
ADI-58125 (antibody)	0.049	0.156	> 5	> 5	> 5	> 5	> 5	> 5	–
CoV2-2130 (antibody)	0.061	0.136	0.011	0.037	> 5	> 5	0.088	0.587	–
LY-CoV1404 (antibody)	0.027	0.096	0.01	0.069	0.004	0.152	0.026	0.1	–
VYD222 (antibody)	0.016	0.103	0.008	0.231	0.026	0.143	0.041	0.524	IC50, MLV-based pseudovirus neutralization [2]: < 0.1 pg/mL; IC50, PhenoSense pseudovirus neutralization [6]: 0.081 µg/mL; IC50, PhenoSense pseudovirus neutralization [7]: 1.36 µg/mL; IC50, PhenoSense pseudovirus neutralization [8]: 2.11 µg/mL; IC50, PhenoSense pseudovirus neutralization [9]: 0.121 µg/mL; IC50, PhenoSense pseudovirus neutralization [10]: 4.2 ng/mL; IC50, lentivirus-based pseudovirus neutralization [11]: 0.03 µg/mL; IC50, MLV-based pseudovirus neutralization [3]: < 0.1 pg/mL; IC50, lentivirus-based pseudovirus neutralization [12]: 0.1 µg/mL; IC50, PhenoSense pseudovirus neutralization [13]: 0.152 µg/mL; IC50, MLV-based pseudovirus neutralization [14]: < 0.1 pg/mL; IC50, MLV-based pseudovirus neutralization [4]: < 0.1 pg/mL
VYD223 (antibody)	0.013	0.06	0.016	0.084	0.015	0.068	0.063	0.437	–
VYD224 (antibody)	0.006	0.014	0.016	0.054	0.01	0.023	0.126	0.359	IC50, PhenoSense pseudovirus neutralization [6]: > 5 µg/mL; IC50, PhenoSense pseudovirus neutralization [7]: 0.004 µg/mL; IC50, PhenoSense pseudovirus neutralization [8]: 0.0015 µg/mL; IC50, PhenoSense pseudovirus neutralization [9]: > 5 µg/mL; IC50, PhenoSense pseudovirus neutralization [10]: 1 ng/mL; IC50, lentivirus-based pseudovirus neutralization [11]: 0.08 µg/mL; IC50, lentivirus-based pseudovirus neutralization [12]: 0.01 µg/mL; IC50, PhenoSense pseudovirus neutralization [13]: > 5 µg/mL
